Assay [1] addresses T1, Proteinase 3 purified in-house from human neutrophil granulocytes (SSI PR3) (human, UniProt P24158, small N-linked glycans on Asn102 and 147; none, one or two alpha-defensins covalently attached to the glycans).
Assay [2] addresses T2, human α1-antitrypsin (human, UniProt P01009 25-418).
T2 construct: also called AT; α1-AT; source: bought: Calbiochem, Merck
The experiment in a line: ELISA + other: SDS-PAGE; α1-AT binding of the PR3 preparations, 'Determined by ELISA and/or SDS-PAGE'. The note with it: both partners purified. In general terms: ELISA stands for enzyme-linked immunosorbent assay.

Assay [3] has as its target T1, Proteinase 3 purified in-house from …. Briefly: ELISA; elution assays with buffers of different pH: pH at which the MAb dissociated from PR3. As to conditions: both partners purified.
Assay [4] has the same target. The experiment in a line: SPR; Biacore 1000, CM5 chip, SSI PR3 immobilised by amine coupling (1287 RU); MAb (whole IgG) injected at 0.1 and 0.4 µg/mL, 25 °C, HBS-E pH 7.4 (10 mM HEPES, 3 mM EDTA, 150 mM NaCl); Langmuir or drifting baseline fit; 'pseudo-affinity/avidity' constants (apparent). As to conditions: both partners purified. For orientation: In SPR one partner is held on a chip, and binding of the other changes the refractive index at the surface.

Assay [5] deals with T3, PR3 peptide 7 (Homo sapiens, UniProt P24158).
T3 construct: By the stated scheme this would be residues 61-80 of mature PR3; source: synthetic peptide (Schäfer-N); not shown: cysteine, N-terminal, kept
T3 chain: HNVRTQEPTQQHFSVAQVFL
The experiment in a line: ELISA; synthetic 20-mer PR3 peptides coupled by an N-terminal cysteine to CovaLink-NH plates; MAb in solution; corrected by non-coated wells. The note with it: both partners purified.

In assay [6] the target is T4, PR3 peptide 2 (Homo sapiens, UniProt P24158).
T4 construct: By the stated scheme this would be residues 11-30 of mature PR3; source: synthetic peptide (Schäfer-N); not shown: cysteine, N-terminal, kept
T4 chain: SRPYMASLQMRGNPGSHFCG
The description is as above. As to conditions: both partners purified.

Assay [7] deals with T5, PR3 peptide 1 (Homo sapiens, UniProt P24158).
T5 construct: By the stated scheme (20-mers, overlap 10, from the mature N-terminus) this would be residues 1-20 of mature PR3; Coupled to CovaLink-NH plates by the extra N-terminal cysteine; source: synthetic peptide (Schäfer-N); not shown: cysteine, N-terminal, kept
T5 chain: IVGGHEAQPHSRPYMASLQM
The assay is described as above. As to conditions: both partners purified.

The target of assay [8] is T6, PR3 peptide 17 (Homo sapiens, UniProt P24158).
T6 construct: By the stated scheme this would be residues 161-180 of mature PR3; source: synthetic peptide (Schäfer-N); not shown: cysteine, N-terminal, kept
T6 chain: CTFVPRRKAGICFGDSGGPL
Described as above. As to conditions: both partners purified.

The target of assay [9] is T7, PR3 peptide 20 (Homo sapiens, UniProt P24158).
T7 construct: source: synthetic peptide (Schäfer-N); not shown: cysteine, N-terminal, kept
T7 chain: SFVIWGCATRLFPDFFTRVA
The assay is described as above. As to conditions: both partners purified.

For assay [10], the target named is T8, PR3 peptide 3 (Homo sapiens, UniProt P24158).
T8 construct: By the stated scheme this would be residues 21-40 of mature PR3; source: synthetic peptide (Schäfer-N); not shown: cysteine, N-terminal, kept
T8 chain: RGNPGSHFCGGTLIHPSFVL
The assay is described as above. As to conditions: both partners purified.

Assay [11] addresses T9, PR3 peptide 16 (Homo sapiens, UniProt P24158).
T9 construct: By the stated scheme this would be residues 151-170 of mature PR3; source: synthetic peptide (Schäfer-N); not shown: cysteine, N-terminal, kept
T9 chain: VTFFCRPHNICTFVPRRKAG
The assay is described as above. As to conditions: both partners purified.

T2 sequence (P01009 25-418): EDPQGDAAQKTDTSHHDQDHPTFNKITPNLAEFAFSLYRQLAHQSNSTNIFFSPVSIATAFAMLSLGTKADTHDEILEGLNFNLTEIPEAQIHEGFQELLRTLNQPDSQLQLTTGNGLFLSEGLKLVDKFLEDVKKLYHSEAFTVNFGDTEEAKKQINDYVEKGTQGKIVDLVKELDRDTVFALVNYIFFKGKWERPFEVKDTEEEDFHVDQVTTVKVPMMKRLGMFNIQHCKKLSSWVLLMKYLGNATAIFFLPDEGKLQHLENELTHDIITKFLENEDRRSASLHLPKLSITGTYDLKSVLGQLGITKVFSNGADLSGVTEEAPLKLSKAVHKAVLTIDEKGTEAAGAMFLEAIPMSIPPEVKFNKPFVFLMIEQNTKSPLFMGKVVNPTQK

B1: 172-03 (antibody, V domains shown)
VH: QVQLQQAGAELVKPGASVKLSCKASGYTFTNYWMHWVKQRPGQGLEWIGEINPTNGGINYNEEFIKKATLTADKSSNTAYMQLSGLTSEDSAVYFCLIEIMTGEGYWGQGTSLTVSS
VL: DILMTQSPSSLTVSAGEKVTMSCKSSQNLLVSGNQNNYLAWHQQKPGRSPKMLIIWASTRVSGVPDRFIGSGSGTDFTLTINSVQAEDLAVYYCQQSFSAPLTFGAGTKLELK
Consider B1, for which, in assay [1], the binding result was “binds”.

B2: Proteinase 3 purified in-house from human neutrophil granulocytes (SSI PR3) (enzyme, UniProt P24158 28-248, looked up)
chain: IVGGHEAQPHSRPYMASLQMRGNPGSHFCGGTLIHPSFVLTAAHCLRDIPQRLVNVVLGAHNVRTQEPTQQHFSVAQVFLNNYDAENKLNDVLLIQLSSPANLSASVATVQLPQQDQPVPHGTQCLAMGWGRVGAHDPPAQVLQELNVTVVTFFCRPHNICTFVPRRKAGICFGDSGGPLICDGIIQGIDSFVIWGCATRLFPDFFTRVALYVDWIRSTLR
modifications: small N-linked glycans on Asn102 and 147; none, one or two alpha-defensins covalently attached to the glycans
notes: proteinase 3, human, active mature enzyme purified from neutrophil granulocytes; The preparation carries on average 5-6 associated alpha-defensins per PR3 (mostly non-covalent); proteolytically active; also called PR3 (SSI); native PR3 complex
Regarding B2, the binding result in assay [2] was “binds”.

B3: Proteinase 3 from Arotec (Arotec PR3) (enzyme, human, UniProt P24158 28-248, looked up)
chain: IVGGHEAQPHSRPYMASLQMRGNPGSHFCGGTLIHPSFVLTAAHCLRDIPQRLVNVVLGAHNVRTQEPTQQHFSVAQVFLNNYDAENKLNDVLLIQLSSPANLSASVATVQLPQQDQPVPHGTQCLAMGWGRVGAHDPPAQVLQELNVTVVTFFCRPHNICTFVPRRKAGICFGDSGGPLICDGIIQGIDSFVIWGCATRLFPDFFTRVALYVDWIRSTLR
modifications: small N-linked glycans on Asn102 and 147; none, one or two alpha-defensins covalently attached to the glycans
notes: proteinase 3, human, commercial preparation; On average 1-2 associated defensins per PR3; source: bought: Arotec
As for B3, in [2], the binding result is reported as “binds”.

B4: Proteinase 3 from Wieslab/Eurodiagnostica (Wieslab PR3) (enzyme, human, UniProt P24158 28-248, looked up)
chain: IVGGHEAQPHSRPYMASLQMRGNPGSHFCGGTLIHPSFVLTAAHCLRDIPQRLVNVVLGAHNVRTQEPTQQHFSVAQVFLNNYDAENKLNDVLLIQLSSPANLSASVATVQLPQQDQPVPHGTQCLAMGWGRVGAHDPPAQVLQELNVTVVTFFCRPHNICTFVPRRKAGICFGDSGGPLICDGIIQGIDSFVIWGCATRLFPDFFTRVALYVDWIRSTLR
modifications: small N-linked glycans on Asn102 and 147; none, one or two alpha-defensins covalently attached to the glycans
notes: proteinase 3, human, commercial preparation; The preparation carries on average 5-6 associated alpha-defensins per PR3; proteolytically active; also called PR3 (Wieslab); source: bought: Wieslab/Eurodiagnostica
As to B4, the binding result in [2] is listed as “binds”.

B5: PR3 MAb HYB 172-04 (antibody, V domains shown)
VH: EVKLEQSGPDLVKPGASVKISCKASGYSFTGYYLHWVKQSHGKSLEWIGRVNPNNDITTYNQKFKDKAILTVDKSSSTAYMEFRSLTSEDSAVYYCAGGGNALDYWGQGTSVTVSS
VL: EIVLTQSPAIMSASLGEEITLTCSASSSVSYMHWYQQKSGTSPKLLIYSTSNLASGVPSRFSGSGSGTFYSLTISSVEAEDAADYYCHQWSSYGTFGGGTKLEIK
notes: Mouse IgG2a,κ (clone 4A3); also called clone 4A3; source: mouse hybridoma, produced in-house
On to B5, for which the “Elution pH (High)” value in [3] was determined as 12 pH. Further, the “Elution pH (Low)” value in assay [3] worked out at 2 pH. In addition, in assay [4], the Ka is 1.8e+10 M⁻¹. In assay [4], the Kd came out at 55.5 pM. For the same molecule, the koff (as a rule, the first-order rate constant of dissociation) in assay [4] was 0.000571 s⁻¹. For the same molecule, the association rate constant (kon) (in general, the rate constant with which the complex forms) in assay [4] came to 1.03e+07 M⁻¹ s⁻¹. Moreover, the binding result in assay [5], in [6], in assay [7], in [8], in assay [9] and in [10] was “binds” each time. Further, in assay [11], the binding result is “binds”.

B6: PR3 MAb HYB 172-01 (antibody, V domains shown)
VH: EVQLEQSGGDLVKPGGSLKLSCAASGFTFSTYGMSWVRQTPDKRLEWVATFVSGGSYNYYPDSVKGRFAISRDNAKNALYLQMSSLKSEDTAMYYCVRRGASYDALDYWGQGTSVTVSS
VL: SIVMTQTPKFLLVSAGDRITITCKASQSVSNDVAWYQQKPGQSPKLLIYYASNRYTGVPDRFTGSGYGTDFTFTISTVQAEDLAVYFCQQDYSSPFTFGSGTKLEIK
notes: Mouse IgG1,κ (clone 6A6); raised against a Triton X-100 extract of purified neutrophil granulocyte alpha-granules; also called clone 6A6; source: mouse hybridoma, produced in-house
Turning to B6, in assay [3], the “Elution pH (High)” value is 12 pH and the “Elution pH (Low)” value came out at 4 pH. In addition, in [4], the Ka came to 5.23e+13 M⁻¹, the Kd came out at 0.0191 pM, the koff worked out at 5.21e-08 s⁻¹ and the association rate constant (kon) came to 2.72e+06 M⁻¹ s⁻¹. The binding result in assay [8] was “binds”.

B7: PR3 MAb HYB 172-05 (antibody, V domains shown)
VH: EVQLQQSGPDLVKPGASVKISCKASGYSFTGYYLHWVKQSHGKSLEWIGRVNPNNDITTYNQKFKDKAILTVDKSSSTAYMEFRSLTSEDSAVYYCAGGGNALDYWGQGTSVTVSS
VL: RIVMTQTPKFLLVSAGDRVTITCKASQSVSNNVGWYQQKTGQSPKLLIYYASNRYTGVPDRFTGSGYGTDFTFTISTVQAEDLAVYFCQQDYNSPYTFGGGTKLEIK
notes: Mouse IgG2a,κ (clone 4A5); also called clone 4A5; source: mouse hybridoma, produced in-house
For the molecule B7, in assay [3], the “Elution pH (High)” value worked out at 12 pH and the “Elution pH (Low)” value was 2 pH. In addition, in assay [4], the Ka is 1.81e+11 M⁻¹, the dissociation rate constant (koff) stood at 6.84e-05 s⁻¹ and the kon stood at 1.24e+07 M⁻¹ s⁻¹. Besides, the binding result in assay [8] is on record as “binds”.

Values taken from publication PMC10044823, “Defensin Interactions in Relation to Monoclonal and Disease-Related Proteinase 3 Antibodies Binding at the Catalytic Site” (Antibodies, 2023).
